Our source for the percent inhibition values is patent US20090149339A1.

The assay deals with GST-DLG1 PDZ domain fusion protein (human homolog of Drosophila discs large protein AA275-477; PDZ domains 1-2 of 3) (human) [GST: P08515]. Description: variant of G assay: 100 µM unlabeled 8-mer with 20 µM biotin-labeled AA2L CLASP-2 peptide on GST-DLG1.
Sequence of GST-DLG1 PDZ domain fusion protein (human homolog of Drosophila discs large protein AA275-477; PDZ domains 1-2 of 3) (human) [GST: P08515] (P08515 1-218, tags or fused parts left off): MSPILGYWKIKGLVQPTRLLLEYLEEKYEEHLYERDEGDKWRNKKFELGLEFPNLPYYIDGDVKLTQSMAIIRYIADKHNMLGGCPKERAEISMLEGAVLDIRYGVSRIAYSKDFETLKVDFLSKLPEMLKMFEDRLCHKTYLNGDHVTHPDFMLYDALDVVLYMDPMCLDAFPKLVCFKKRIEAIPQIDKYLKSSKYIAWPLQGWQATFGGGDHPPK

The substance “eight amino acid CLASP-2 peptide MTSSSSVV (unlabeled competitor)” gave a percent inhibition above 50%.
